Source: US20150004637A1, “SYSTEMS AND METHODS FOR IMAGING AT HIGH SPATIAL AND/OR TEMPORAL PRECISION” (President and Fellows of Harvard College, priority 2011, published 2015)

B1: Archaerhodopsin 3 (protein)
chain: MDPIALQAGYDLLGDGRPETLWLGIGTLLMLIGTFYFLVRGWGVTDKDAREYYAVTILVPGIASAAYLSMFFGIGLTEVTVGGEMLDIYYARYADWLFTTPLLLLDLALLAKVDRVTIGTLVGVDALMIVTGLIGALSHTAIARYSWWLFSTICMIVVLYFLATSLRSAAKERGPEVASTFNTLTALVLVLWTAYPILWIIGTEGAGVVGLGIETLLFMVLDVTAKVGFGFILLRSRAILGDTEAPEPSAGADVSAAD
modifications: Halorubrum sodomense
notes: Microbial rhodopsin from Halorubrum sodomense, light-driven proton pump used as fluorescent voltage indicator; experiments used an Arch-eGFP fusion
B2: Arch D95N: Archaerhodopsin 3 with aspartic acid 95 mutated to asparagine; non-pumping voltage indicator (protein, UniProt P96787 7-258, looked up, variant D95N)
Archaerhodopsin-3: QAGYDLLGDGRPETLWLGIGTLLMLIGTFYFLVRGWGVTDKDAREYYAVTILVPGIASAAYLSMFFGIGLTEVTVGGEMLDIYYARYANWLFTTPLLLLDLALLAKVDRVTIGTLVGVDALMIVTGLIGALSHTAIARYSWWLFSTICMIVVLYFLATSLRSAAKERGPEVASTFNTLTALVLVLWTAYPILWIIGTEGAGVVGLGIETLLFMVLDVTAKVGFGFILLRSRAILGDTEAPEPSAGADVSAAD

What was measured:
HEK cells = assay: Frequency response and noise of membrane potential estimated from fluorescence; format: cell-based; conditions: for noise / accuracy of voltage estimated from fluorescence: HEK cells, after calibration with voltage ramp −150 to +150 mV; for Noise in V̂FL: frequencies f≧0.1 Hz in HEK cells
Protocol: For the data of FIG. 9, a chirped sine wave with an amplitude of about 50 mV and frequency from about 1 Hz to about 1 kHz was applied to the cell. Membrane potential VFL was determined from fluorescence and the Fourier transform of VFL was calculated. The uptick at about 1 kHz is an artifact of electronic compensation circuitry. […] The noise figures reported here are specific to our imaging system and serve primarily as an indicator of the possible sensitivity of Arch.
(8) Frequency-dependent response functions of Arch WT and D95N. Test waveforms consisted of a concatenated series of sine waves, each of duration 2 s, amplitude 100 mV, zero mean, and frequencies uniformly spaced on a logarithmic scale between 1 Hz and 1 kHz (31 frequencies total). The waveforms were discretized at 10 kHz and applied to the cell, while fluorescence movies were acquired at a frame rate of 2 kHz.
The model parameters for extracting VFL(t) were calculated from the fluorescence response to low frequency voltages. These parameters were then used to calculate an estimated voltage at all frequencies.
The applied voltage was downsampled to 2 kHz to mimic the response of a voltage indicator with instantaneous response. For each applied frequency, the Fourier transform of VFL(t) was calculated and divided by the Fourier transform of the downsampled V(t). The amplitude of this ratio determined the response sensitivity. It was important in some cases to properly compensate pipette resistance and cell membrane capacitance to obtain accurate response spectra.
The power spectrum of VFL(t) under constant V=0 was also measured to enable calculations of signal-to-noise ratio for any applied V(t).
In these examples, a measure of the performance of a voltage indicator which reported the information content of the fluorescence signal was used, including an algorithm to infer membrane potential from a series of fluorescence images. The accuracy with which the estimated membrane potential matched the true membrane potential was used (as reported by patch clamp recording) as a measure of indicator performance.
The estimated membrane potential, VFL(t), was determined from the fluorescence in two steps. First a model was trained relating membrane potential to fluorescence at each pixel. A highly simplified model that the fluorescence signal, Si(t), at pixel i and time t, is given by: […]

[1] = tested on: cultured mouse hippocampal neurons; assay: Optopatch: optical stimulation and recording in neurons; format: cell-based; conditions: red light 230 W/cm^2, 640 nm
From the text: In another example, a genetic construct termed “Optopatch” was used to provide simultaneous optical stimulation and recording from neurons. One embodiment of the Optopatch construct consisted of a bicistronic vector for co-expression of channelrhopsin 64 (ChR64)-mOrange II and archaerhodopsin 3 (Arch)-eGFP. This construct is depicted in FIG. 18A. The abbreviations used in the figure may be interpreted as follows. ss: Signaling sequence designed to improve the trafficking of Arch to the plasma membrane; Arch: Archaerhodopsin 3; eGFP: Enhanced green fluorescent protein; ER2: Endoplasmic reticulum export motif, designed to improve the trafficking of Arch to the plasma membrane; P2A: porcine teschovirus-1 2A sequence, a ribosomal skip-site leading to expression of two proteins from a single mRNA transcript; ChR64: Channelrhodopsin 64, a blue light-activated ion channel; mOr2: mOrange 2 fluorescent protein. […]
Whole-field illumination with pulses of blue light (20 mW/cm^2, 10 ms, 488 nm, repeated at 10 Hz) led to flashes of red fluorescence (em: 660-760 nm), detected on a high speed EMCCD camera. […] The optically-recorded fluorescence waveform coincided closely with the electrically recorded waveform on a single-trial basis (as shown in FIG. 18C), with a noise in the optically recorded voltage of 1.1 mV at a 1 kHz acquisition rate.

Molecule	noise / accuracy of voltage estimated from fluorescence (HEK cells)	Noise in V̂FL (HEK cells)	fluorescence oscillation amplitude retained relative to low-frequency amplitude (HEK cells; sinusoidal membrane potential, f≈1 kHz)	shot-noise limited noise floor in V̂FL (HEK cells; voltage clamp at constant V=0 mV, frequencies above about 10 Hz)	outward photocurrent mediated by Arch ([1]; n=6 cells)	hyperpolarization of cells by Arch photocurrent ([1]; n=8 cells)
B1	about 625 μV/(Hz)^1/2	625 μV/Hz^1/2	about 55%	about 470 μV/(Hz)^1/2	34±7 pA	6.1±1.1 mV
B2	260 μV/(Hz)^1/2	260 μV/Hz^1/2	–	–	–	–
